Data published in patent US20230136228A1 (LAMKAP BIO ALPHA, published 2023).
Residue numbers refer to the chain shown, from its start. Names and notes keep the numbering of the source.

B1: AB1 L3-1/D (bispecific antibody, human IgG1, kappa, lambda, L234A L235A)
heavy: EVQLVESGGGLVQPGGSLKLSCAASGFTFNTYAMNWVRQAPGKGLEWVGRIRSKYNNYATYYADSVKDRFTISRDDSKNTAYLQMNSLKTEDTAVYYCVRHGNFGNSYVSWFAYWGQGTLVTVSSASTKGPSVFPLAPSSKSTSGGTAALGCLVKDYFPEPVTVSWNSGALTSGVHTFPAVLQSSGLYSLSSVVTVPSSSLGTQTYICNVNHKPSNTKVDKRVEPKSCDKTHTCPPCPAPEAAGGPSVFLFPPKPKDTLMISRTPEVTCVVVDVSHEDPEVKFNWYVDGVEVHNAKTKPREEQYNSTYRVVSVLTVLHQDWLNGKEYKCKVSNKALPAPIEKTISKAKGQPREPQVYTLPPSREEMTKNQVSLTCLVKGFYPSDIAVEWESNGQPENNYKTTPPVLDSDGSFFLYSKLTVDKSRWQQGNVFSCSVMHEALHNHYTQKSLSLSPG
light 1: EIVLTQSPATLSLSPGERATLSCRASQSVNSNLNWYQQKPGQAPRLLIYHGSNRATGIPARFSGSGSGTDFTLTISSLEPEDFAVYYCQQFDLRHEHNTFGQGTKVEIKRTVAAPSVFIFPPSDEQLKSGTASVVCLLNNFYPREAKVQWKVDNALQSGNSQESVTEQDSKDSTYSLSSTLTLSKADYEKHKVYACEVTHQGLSSPVTKSFNRGEC
light 2: QTVVTQEPSLTVSPGGTVTLTCRSSTGAVTTSNYANWFQQKPGQAPRGLIGGTNKRAPGTPARFSGSLLGGKAALTLSGAQPEDEAEYYCALWYKQRWVFGGGTKLTVLGQPKAAPSVTLFPPSSEELQANKATLVCLISDFYPGAVTVAWKADSSPVKAGVETTTPSKQSNNKYAASSYLSLTPEQWKSHRSYSCQVTHEGSTVEKTVAPTECS
notes: KL CEAxCD3 bispecific antibody, hIgG1 L234A+L235A
B2: AB60L3-1/N (bispecific antibody, human IgG1, kappa, lambda, L234A L235A)
heavy: EVQLVESGGGLVQPGGSLKLSCAASGFTFNTYAMNWVRQAPGKGLEWVGRIRSKYNNYATYYADSVKDRFTISRDDSKNTAYLQMNSLKTEDTAVYYCVRHGNFGNSYVSWFAYWGQGTLVTVSSASTKGPSVFPLAPSSKSTSGGTAALGCLVKDYFPEPVTVSWNSGALTSGVHTFPAVLQSSGLYSLSSVVTVPSSSLGTQTYICNVNHKPSNTKVDKRVEPKSCDKTHTCPPCPAPEAAGGPSVFLFPPKPKDTLMISRTPEVTCVVVDVSHEDPEVKFNWYVDGVEVHNAKTKPREEQYNSTYRVVSVLTVLHQDWLNGKEYKCKVSNKALAAPIEKTISKAKGQPREPQVYTLPPSREEMTKNQVSLTCLVKGFYPSDIAVEWESNGQPENNYKTTPPVLDSDGSFFLYSKLTVDKSRWQQGNVFSCSVMHEALHNHYTQKSLSLSPG
light 1: B1 light 1 with S28T, S31A, H50Y, G51A, L93Y, R94H, H95N
light 2: B1 light 2
notes: Kappa-lambda body, lead optimization wave 2
B3: AB66L3-1/N (bispecific antibody, human IgG1, kappa, lambda, L234A L235A)
heavy: B2 heavy
light 1: B1 light 1 with R24H, A25S, S28V, S31K, L93Y, R94F, H95R
light 2: B1 light 2
notes: as for B2
B4: anti-CEA antibody C11 (antibody, human IgG1, kappa, V domains shown)
VH: EVQLVESGGGLVQPGGSLKLSCAASGFTFNTYAMNWVRQAPGKGLEWVGRIRSKYNNYATYYADSVKDRFTISRDDSKNTAYLQMNSLKTEDTAVYYCVRHGNFGNSYVSWFAYWGQGTLVTVSS
VL: DIQMTQSPSTLSASVGDRVTITCRASQLISNGLYWYQQKPGKAPKLLIYDASILESGVPSRFSGSGSGTEFTLTISSLQPDDFATYYCQQRLSWPLTFGQGTKVEIKR
notes: Bivalent monoclonal antibody; also called C11 mAb

Experiments:
human CD3ε [1] = target: T1, human CD3ε (human, UniProt P07766 23-207); test: flow cytometry, Jurkat cells
T1 construct: whole, on cells; Present on cells as part of the CD3/TCR complex; also called CD3 epsilon

[2] = target: T2, shed soluble CEACAM5 (sCEA) (human, UniProt P06731 35-685, limits assumed); test: cell-based or functional assay
T2 sequence (looked up): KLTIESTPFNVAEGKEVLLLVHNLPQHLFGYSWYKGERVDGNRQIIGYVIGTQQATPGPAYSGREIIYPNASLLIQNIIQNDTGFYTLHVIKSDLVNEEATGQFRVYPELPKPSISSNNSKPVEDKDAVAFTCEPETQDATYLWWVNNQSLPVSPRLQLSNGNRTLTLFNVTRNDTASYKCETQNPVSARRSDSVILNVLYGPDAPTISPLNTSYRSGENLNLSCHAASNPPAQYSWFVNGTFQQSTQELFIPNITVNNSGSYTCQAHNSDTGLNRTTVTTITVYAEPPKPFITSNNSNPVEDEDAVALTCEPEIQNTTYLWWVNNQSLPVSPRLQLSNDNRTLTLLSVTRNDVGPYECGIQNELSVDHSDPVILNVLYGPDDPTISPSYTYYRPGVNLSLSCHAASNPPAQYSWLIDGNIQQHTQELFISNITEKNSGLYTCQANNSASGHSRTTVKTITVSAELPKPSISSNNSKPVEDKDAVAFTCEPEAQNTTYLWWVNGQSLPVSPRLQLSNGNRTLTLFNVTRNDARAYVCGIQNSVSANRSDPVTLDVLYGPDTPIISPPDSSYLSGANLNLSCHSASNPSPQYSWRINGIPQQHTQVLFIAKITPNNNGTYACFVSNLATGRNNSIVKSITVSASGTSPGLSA

[3] = target: T3, human CEACAM5 (carcinoembryonic antigen, CEA), cell surface (human, UniProt P06731 35-685); test: cell-based or functional assay
T3 sequence (looked up): T2 sequence (looked up)

[4] = target: T3, human CEACAM5 (carcinoembryonic …); test: flow cytometry, CEA positive cells
human CD3ε [5] = target: T1, human CD3ε; test: flow cytometry, primary CD4+ and CD8+ T-cells
[6] = target: T3, human CEACAM5 (carcinoembryonic …); test: flow cytometry, MKN-45 cells
Description: Examples of cells that can be used include CEACAM5-positive cell lines such as the gastric adenocarcinoma cell line MKN45 (expressing 155′000 CEACAM5 molecules per cell), or the pancreatic adenocarcinoma cell line HPAF-II (expressing 108′000 CEACAM5 molecules per cell) or the colorectal adenocarcinoma cell line LS174T (expressing 26′000 CEACAM5 molecules per cell) and CEACAM5-negative cell lines, such as the lung carcinoma cell line A549 and the MKN45 CEACAM5-knock out cell line generated by CRISPR-CAS9 methodology. Cell staining and binding assessment can be performed as described above. Binding of the bsAb of the invention at 200 nM, 1000 nM and 5000 nM is 40% and higher compared to binding of TCB2014 (see Table 4 and also FIGS. 11 and 14).

[7] = target: T4, biotinylated recombinant human CEACAM5 protein (human, UniProt P06731 35-685, biotinylated in vitro with biotin ligase (Avitag)); test: competition ELISA with reference antibodies
T4 construct: extracellular domain; also called recombinant CEA; CEA ECD; not shown: C-terminal Avitag and either a hexa-histidine tag, a human Fc region or a mouse Fc region; which one was used in the ELI
T4 sequence (looked up): T2 sequence (looked up)

T1 sequence (P07766 23-207): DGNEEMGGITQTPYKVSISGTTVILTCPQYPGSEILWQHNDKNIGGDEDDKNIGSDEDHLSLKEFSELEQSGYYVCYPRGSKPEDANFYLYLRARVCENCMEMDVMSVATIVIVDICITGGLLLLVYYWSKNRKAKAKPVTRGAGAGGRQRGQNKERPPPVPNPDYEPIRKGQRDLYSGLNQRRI

Binder | binding result (human CD3ε [1]) | EC50 fold change compared to no shed CEA condition, sCEA 0 µg/mL (reference) [2] [fold] | EC50 fold change compared to no shed CEA condition, sCEA 0.2 µg/mL [2] [fold] | EC50 fold change compared to no shed CEA condition, sCEA 1 µg/mL [2] [fold] | EC50 fold change compared to no shed CEA condition, sCEA 5 µg/mL [2] [fold] | Killing EC50, HPAFII cells (TDCC, LDH release) [3] [pM] | Killing EC50, LS174T cells (TDCC, LDH release) [3] [pM] | Killing EC50, MKN45 cells (TDCC, LDH release) [3] [pM] | binding higher than TCB2014 (at 200 nM) [4] [%] | binding result (human CD3ε [5]) | EC50 [6] [pM] | Top MFI value [6] [MFI] | binding higher than TCB2014 (at 200 nM, 1000 nM and 5000 nM) [6] [%] | binding result [7]
B1 | binds | – | – | – | – | – | – | – | – | – | – | – | – | –
B2 | – | 1 | 0.9 | 0.8 | 1.3 | 280 | 210 | 130 | ≥ 40 | binds | 64100 | 989000 | ≥ 40 | –
B3 | – | 1 | 1.2 | 2.1 | 3.1 | 200 | 220 | 50 | ≥ 40 | binds | 24300 | 759000 | ≥ 40 | –
B4 | – | – | – | – | – | – | – | – | – | – | – | – | – | binds
